The chains are these.
B1: Ras-related protein Rab-8A (Homo sapiens), P61006 (parent)
chain: MAKTYDYLFKLLLIGDSGVGKTCVLFRFSEDAFNSTFISTIGIDFKIRTIELDGKRIKLQIWDTAGQERFRTITTAYYRGAMGIMLVYDITNEKSFDNIRNWIRNIEEHASADVEKMILGNKCDVNDKRQVSKERGEKLALDYGIKFMETSAKANINVENAFFTLARDIKAKMDKKLEGNSPQGSNQGVKITPDQQKRSSFFRCVLL
partner: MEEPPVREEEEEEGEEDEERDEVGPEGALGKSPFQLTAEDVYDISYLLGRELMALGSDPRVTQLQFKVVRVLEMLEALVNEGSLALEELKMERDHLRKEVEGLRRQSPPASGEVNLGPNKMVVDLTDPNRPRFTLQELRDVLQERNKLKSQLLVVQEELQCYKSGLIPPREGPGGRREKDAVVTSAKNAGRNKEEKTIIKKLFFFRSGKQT
B2: RILP-like protein 2 (Homo sapiens), Q969X0 (parent)
chain: B1 partner

One test covers variants of B1. To be noted: with ripl2_human RILPL2, Q969X0.
With D44A, the “effect of a mutation on the interaction” value is reported as “disrupting interaction strength”.
Same read-out and setting: the result for D44K reads “disrupting interaction strength”; that for D44N, “disrupting interaction strength”; that for T4A, “with no effect”.
As to K58A, the “effect of a mutation on the interaction” value is “with no effect”.
On the same count and under the same terms, the result for K58Q reads “disrupting interaction strength”.
In the case of K58E, the “effect of a mutation on the interaction” value was “disrupting interaction strength”.

The variants in a further test derive from B1. The settings on record: with ripl2_human RILPL2, Q969X0. This is another data set of the same source.
T22N: the “effect of a mutation on the interaction” value is listed as “disrupting interaction strength”.

The variants in the next test derive from B2. To be noted: with rab8a_human RAB8A.
Consider L135A, for which the “effect of a mutation on the interaction” value was “decreasing interaction strength”.
On the same count and under the same terms, the entry for F133A is “disrupting interaction strength”; for R139E it is “decreasing interaction strength”.
Turning to R139A, the “effect of a mutation on the interaction” value is on record as “with no effect”.
Take R139Q: the “effect of a mutation on the interaction” value was “with no effect”.
On the same count and under the same terms, the entry for K149Q is “decreasing interaction strength”.
The same measure, in the same setting: the entry for K149A is “decreasing interaction strength”.
Same read-out and setting: the entry for K149E is “decreasing interaction strength”; for P131R it is “decreasing interaction strength”.
As for P131K, the “effect of a mutation on the interaction” value was “decreasing interaction strength”.
On to P131A, for which the “effect of a mutation on the interaction” value was “decreasing interaction strength”.
Regarding P131C, the “effect of a mutation on the interaction” value is on record as “decreasing interaction strength”.
With R130A, the “effect of a mutation on the interaction” value is “decreasing interaction strength”.
On the same count and under the same terms, the result for R130K reads “decreasing interaction strength”; that for R130Q, “decreasing interaction strength”; that for R130E, “disrupting interaction strength”.
Still for that read-out and setting: the entry for E157Q is “decreasing interaction strength”; for E157A it is “decreasing interaction strength”.
Still for that read-out and setting: the entry for E157K is “decreasing interaction strength”; for R132E it is “disrupting interaction strength”.
Regarding R132Q, the “effect of a mutation on the interaction” value is listed as “disrupting interaction strength”.
On the same count and under the same terms, the result for R132K reads “disrupting interaction strength”.

In a further test the parent is B2. To be noted: with rab8a_human RAB8A, P61006.
Turning to R132A, the “effect of a mutation on the interaction” value is “disrupting interaction strength”.

The values above are taken from IntAct's records for PubMed 32017888.
